In the nanobody polyreactivity screen of Harvey et al. (2022):

Experiment: yeast display, Sf9 membrane polyspecificity reagent, FACS + sequencing; frameworks hold sequencing errors
Method in brief: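 Using colony PCR, genes from sorted yeast display clones were amplified, then sequenced on MiSeq at 2 × 250 and filtered by CDR length. The clones had been stained with 10% biotinylated, detergent-solubilized Sf9 membrane reagent for 1 hour at 4 °C and sorted by FACS into low and high (top ~1%) gates on anti-HA and streptavidin fluorescence. Polyreactivity labels come from the gate of origin.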

Sequence | polyreactivity (PSR sort gate)
QVQLVESGGGLVQAGGSLRLSCAASGNTFPPNAMGWYRQAPGKERELVAAISWSGDSTYYADSVKGRFTISRDNAKNTVYLQMNSLKPEDTAVYYCAAAIFGEYEYWGQGTQVTVSS | low polyreactivity
QVQLVESGGGLVQAGGSLRLSCAASGNTFREYTMGWYRQAPGKERELVAGISGSGGRTYYADSVKGRFTISRDNAKNTVYLQMNSLKPEDTAVYYCNARWYYGIGYNYWGQGTQVSVSS | high polyreactivity
QVQLVESGGGLVQAGGSLRLSCAASGNTFRWYDMGWYRQAPGKERELVAGITRVGCTNYADSVKGRFTISRDNAKNTVYLQMNSLKPEDTAVYYCAARPRWFYGYPYGIIGYDYWGQGTQVTVSS | high polyreactivity
QVQLVESGGGLVQAGGSLRLSCAASGNTFSTNAMGWYRHAPGKERELVASISTNGGSTYYADSVKGRFTISRDNAKQTVYLQKNSLKPEDTAVYYCAAYVDWGVWAYLYEYWGQGTQVTVSS | low polyreactivity
QVQLVESGGGLVQAGGSLRLSCAASGNTFTFYAMGWYRQAPGKERELVASITGRGGSTYYADSVKGRFTISRDNAKNTVYLQMNSLKPEDTAVYYCNADLPAYGLQGDDYWGQGTQVTVSS | low polyreactivity
QVQLVESGGGLVQAGGSLRLSCAASGNTFTYYAMGWYRQAPGKERELVAAINIDVASTYYADSVKGRFTISRDIAKNTVYLQMNSLKPEDTAVYYCAAEVGVYPVYWYDYWGQGTQVTVSS | low polyreactivity
QVQLVESGGGLVQAGGSLRLSCAASGNTFVKYTMGWYRQAPGKERELVAAITWSGGSTSYADSVKGRFTLSRDNAKNTVYLQMNSLKPEDTAVYYCAAAWSHSRWDTHDYWGQGTQVTVSS | low polyreactivity
QVQLVESGGGLVQAGGSLRLSCAASGNTFWFYGMGWYRQAPGKERELVAAITSGGSTDYADSVKGRFTISRDNAKNTVYLLLNSLKPEDTAVYYCAAEPVAYYGSSYGYWGQGTQVTVSS | low polyreactivity
QVQLVESGGGLVQAGGSLRLSCAASGNTFWGNAMGWYRQAPGKERELVATISASSGSTYYADSVKGRFTISRDNAKNTVYLQMNSLKPEDTAVYYCAKTALRYLKHGRTKGDYWGQGTQVTVSS | low polyreactivity
QVQLVESGGGLVQAGGSLRLSCAASGNTFWQYAMGWYRQAPGKERELVAAITRSTGSTYYADSVKGRFTISRDNAKNTVYLQMNSLKPEDTAVYYCAADFYRHYFRVDSWGQGTQVTVSS | low polyreactivity
QVQLVESGGGLVQAGGSLRLSCAASGNTFWRYTMGWYRQAPGKERELVAAISSSGGSTYYADSVKGRFTISRDNAKNTVYLQMNSLKPEDTAVYYCAAERRLYKIFSYGYWGQGTQVTVSS | high polyreactivity
QVQLVESGGGLVQAGGSLRLSCAASGNTFYANTMGWYRQARNERELVAAITSGTYADSVKGRFTISRDNAKNTVYLQMNSQKPEDTAVYYCAREESLYVTDPGPSKLDYWGQGTQVTVSS | low polyreactivity
QVQLVESGGGLVQAGGSLRLSCAASGNTFYAYAMGWYRQAPGKERELVAAIARGGNTYYADSVKGRFTISRDNAKNTVYLQMNSLKPEDTAVYYCHAYYPIRSSPYGYYYWGQGTQVTVSS | high polyreactivity
QVQLVESGGGLVQAGGSLRLSCAASGNTFYGYAMGWNRQAPGKERELVASITLSGDSTYYADSVKGRFTISRDNEKNTVYLQMNSLKPEDTAVYDCAGVYTYPLGYYHYTYDYWGQGTQVTVSS | low polyreactivity
QVQLVESGGGLVQAGGSLRLSCAASGNTFYPNAMGWYRQAPGKERELVAAITTSGGTTYYADSVKGRFTISRDNAKNTVYLQMNSLKPEDTAVYYCAAYWSRDKYDYWGQGTQVTVSS | low polyreactivity
QVQLVESGGGLVQAGGSLRLSCAASGNTFYRYAMGWYRQAPGKERELVAAISWSGSSTYYADSVKGRFTISRDNAKNTVYLQMNSLKPEDTAVYYCAVYYTRIGPRYDYWGQGTQVTVSS | high polyreactivity
QVQLVESGGGLVQAGGSLRLSCAASGNTFYSYAMGWYRQAPGKERELVAAITWGGRRKFADSVKGRFTSSRDNAKITVYLQMNSLKPEDTAVYYCAARLFHGKTKFDYSGQGTQVTVSS | high polyreactivity
QVQLVESGGGLVQAGGSLRLSCAASGNTFYVYAMGWYRQAPGKERELVADITWSGGSTYYADSVKGRFTISRDNAKNTVYLQMNSLKPEDTAVYYCNADYYYQLWELEYYYWGQGTQVTVSS | high polyreactivity
QVQLVESGGGLVQAGGSLRLSCAASGNTIHWNFMGWYRQATGKERELVATITFSGSSTYYADSVKGRFTISRDNAKNTVYLQMNSLKPEDTAVYYCAKDFLGDGTSIEYGGSEYDYWGQGTQVTVSS | low polyreactivity
QVQLVESGGGLVQAGGSLRLSCAASGNTINVNTMGWYRQAPGKERDLVAAISKRGGSTYYADSVKGRFTISRDNAKNTVYLQMNSLKPEDTAVYYCDKQVSLPRYHYGSAPYGYWGQGTQVTVSS | high polyreactivity
QVQLVESGGGLVQAGGSLRLSCAASGNTLDWYAMGWYRQAPGKERELVAAISSAGSTSYADSVKGRFTISRDNAKNTVYLQMNSLKPEDTAVYYCNVDVYSKDANFQSFASEYDYWGQGTQVTVSS | low polyreactivity
QVQLVESGGGLVQAGGSLRLSCAASGNTLRYYAMGWYRQAPGKERELVAAITRRGGSTYADSVKGRFTISRDNAKNTVYLQMNSLKPEDTAVYYCNRVLYDHSFPYNRGYDYWGQGTQVTVSS | high polyreactivity

Sequence | polyreactivity (PSR sort gate)
QVQLVESGGGLVQAGGSLRLSCAASGNTLYQYAMGWYRQAPGKERELVASITWSGSSTYYADSVKGRFTISRDNAKNTDDLQMNSLKPEDPAVYYCAAVVYYTFDYCGQGTQVTVSS | low polyreactivity
QVQLVESGGGLVQAGGSLRLSCAASGNTVNFYAMGWYREAPGKERELVASITSGGGTNYADSVKGRFTISRDNAKNTVYLQMNSLKPEETAVYFCAAQFYYHFRFHCDWGQGTQVTVSS | low polyreactivity
QVQLVESGGGLVQAGGSLRLSCAASGPIFGFNAMGWYRQAPGKERELVARISSVGSTNYADSVKGRFTISRDNAKNTVYLQMNSLKPEDTAVYYCAAKRYYTQSSYYLALYDYWGQGTQVTVSS | low polyreactivity
QVQLVESGGGLVQAGGSLRLSCAASGPIFSDYTMGWYRQAPGKERELVAVISRRGTSTYYADSVKGRFTISRDNAKNTVDLQMNSLKPEDTAVYYCAADDNTYKFYYWGQGTQVTVSS | high polyreactivity
QVQLVESGGGLVQAGGSLRLSCAASGQIFYTNTMGWYRQAPGKERELVAAINSGDRTYYADSVKGRFTISRDNAKNTVYLQMNSLKPEDTAVYYCAARNYATAVRYDYWGQGTQVTVSS | high polyreactivity
QVQLVESGGGLVQAGGSLRLSCAASGQTFPFYTKGWYRQAPGKERELVGAISRRGGSTYYADSVKGRFTISRDNAKYTVYLQMKSLKPEDTAVYYCAADKYSWYDYWGQGTQVTVSS | low polyreactivity
QVQLVESGGGLVQAGGSLRLSCAASGRFFKSYAMGWYRQAPGKERELVAAISRSDDTTYYADSVKGRFTISRDNAKNTVYLQMNSLKPEDTAVYYCAADTWRDGDDYWGQGTQVTVSS | low polyreactivity
QVQLVESGGGLVQAGGSLRLSCAASGRICSQYAMGWYRQAPGKERELVAAISTSGDRTYYADSVKGRFTISRDNAQNSGYLQLNSLKPEDTAVYYCAKDGPYTYGRDIYEYWGQGTQVTVSS | low polyreactivity
QVQLVESGGGLVQAGGSLRLSCAASGRICWYYGLGWYRQAPGKERELVAAITTGGSTYADSVKGRFTISRDNAKNTVYLQMNSLKPEDPAVYYCAADGSYVWRNGWTYFYWGQGTQVTVSS | high polyreactivity
QVQLVESGGGLVQAGGSLRLSCAASGRIDRPYAMGLYRPAPGKERELVAAISRRGGSTYYADSVKGRFTISRDNAKNTVYLQMKSLKPEDTAVYYCAADYWYESLRLQGIQGLDYWGQGTQVTVSS | high polyreactivity
QVQLVESGGGLVQAGGSLRLSCAASGRIFAANAMGWYRQAPGKERELVATISTGGGRTYYADSVKGRFTISRDNAKNTVYLQMNSLKPEDTAVYYCAASRGYLVPTRLAYYYWGQGTQVTVSS | high polyreactivity
QVQLVESGGGLVQAGGSLRLSCAASGRIFADNAMGWYRQAPGKERELVADITYSGGSTYYADSVKGRFTISRDNAKNTVYLQMNSLKPEDTAVYSCAKQGVDYWGQGTQVTVSS | low polyreactivity
QVQLVESGGGLVQAGGSLRLSCAASGRIFADYAMGWYRQAPGKERELVADIRQSGGRTYYADSVKGRFTISRDNAKNTVYFQINRLKPEDTAVYYCATDYGSWGDYSGKYDYWGQGTQVTVSS | low polyreactivity
QVQLVESGGGLVQAGGSLRLSCAASGRIFADYAMGWYRQAPGKERELVADIRQSGGRTYYADSVKGRFTISRDNAKNTVYLQMNSLNPEDTAVYYCATDYGSWGDYSGKYDYWGQGTQVTVSS | low polyreactivity
QVQLVESGGGLVQAGGSLRLSCAASGRIFAFNAMGWYRQAPGTESELVAAINWSGTTTYYADSVKGRFTISRDNAKNTVYLQMNSLKPEDTAVYYCAADVTFRGYAKYYYWGQGTQVTVSS | low polyreactivity
QVQLVESGGGLVQAGGSLRLSCAASGRIFAFYAMGWYRQAPGKERELVAAISWSGGSTYYADSVKGRFTISRDNAKNTVYLQMNSLKPEDTAVYYCAAYRTRGSAYPYDYWGQGTQVTVSS | high polyreactivity
QVQLVESGGGLVQAGGSLRLSCAASGRIFAFYTMGWYIQAPGKERELVAAITRRSGSTYYADSVKGRFTISRDNAKNTVYLQMNSLKPEDTAVYYCAVDTYIYTNRRYTKFDYWGQGTQVTVSS | low polyreactivity
QVQLVESGGGLVQAGGSLRLSCAASGRIFAGNAMGWYRQAPGKERELVAVISKGGGRTYYADSVKGRFTFSRDNAKNTVYLQMNSLKPEDTAVYYCAVRTLQRGKHDLGVDYWGQGTHVTVSS | high polyreactivity
QVQLVESGGGLVQAGGSLRLSCAASGRIFAGNTKGWYRQAPGKERELVAAITSSGGSTYYADSVKGRFTISRDNANTTVYLQMNSLKPEDTAVYYPIVYYVKYYYWGQGTQVTVSS | high polyreactivity
QVQLVESGGGLVQAGGSLRLSCAASGRIFAGYALGWYRQAPGKERELVAAITFRSGTTYYADSVKGRFTISRDNAKNTVYLQMHSLKPEDTAVYYCAARWGPYAFTYVRTYDYWGQGTQVTGSS | low polyreactivity
QVQLVESGGGLVQAGGSLRLSCAASGRIFAGYAMGWYRQAPGKERELVAAISKRGGSTYYADSVKGRFTISRDKAKNTVYLQMNSLKPEDTAVYYCAADTGYPNGQGQGYQNFGGYYWGQGTQVTVSS | high polyreactivity
